Test results from PMC13537762.

Target: respiratory complex III (mouse (endogenous in liver mitochondria))
Test: native gel or EMSA; blue native PAGE (3-12% Bis-Tris) of digitonin-solubilised isolated liver mitochondria from control or CLS-LKO mice (standard chow); western blotting with a supercomplex antibody cocktail or subunit-specific antibodies

respiratory complex III
stoichiometry N: 2
